Entries after “also recorded” stand apart in the source; their conditions may differ.

Test [1] concerns human embryonal kidney cell line 293. Nature of the test: FACS analysis of geranylgeraniol-induced apoptosis in 293 cells transfected with various genes. Type of test: cell-based. To be noted: 293 cells constitutively expressing the gene from pCEP4; 10 μM geranylgeraniol; propidium iodide FACS. On the procedure:
FIG. 4 depicts inhibition of apoptosis by human kd312 as compared to other proteins (as indicated). Shown graphs are the results from FACS analysis of apoptosis induced by geranylgeraniol in 293 cells transfected with various genes. Cells were treated with 10 μM geranylgeraniol for various times as indicated. Subsequently, the cells were washed and stained with 50 μg/ml propidium iodide in 3.8 mM sodium citrate pH 7.0 and analyzed using a FACScan flow cytometer. The extent of apoptosis was determined by measuring the proportion of cells displaying hypo-diploid DNA content. The data represent the average of 2 independent experiments.
(§1) Transfections of 293 cells with the plasmid pCEP4 or its derivatives were performed by using LipofectAMINE Reagent and the protocol supplied with it by Gibco BRL. Transfected cells were grown in Gibco BRL D-MEM high-glucose medium that lacked sodium pyruvate and was supplemented with 10% FBS and 300 μg/ml hygromycin. Fluorescence-activated cell sorting (FACS) for apoptosis assays was performed according to Polverino and Patterson, J. Biol. Chem. 272, No. 11: 7013-7021 (1997).
(§2) Involvement of kd312 in apoptosis was tested in the human embryonal kidney cell line 293 following expression of this gene from the episomal expression vector pCEP4. Derivatives of 293 cells constitutively expressing human kd312, bcl-2, R-ras, and murine H-ras genes from pCEP4 were established. Expression of each gene was confirmed by Western blotting experiments (data not shown). […] It has been shown that R-ras promotes apoptosis following expression in 32, D3, FL5.12, and NIH3T3 cells. […] The levels of inhibition following expression of the ras genes, particularly R-ras, were unmistakably lower than those resulting from the expression of kd312.
A general note: In flow cytometry, cells or beads pass a laser one at a time.

Test [2] deals with 293 cells. The experiment in a line: Establishment of 293 cell lines constitutively expressing genes from pCEP4. It counts as cell-based, human. To be noted: no stable cell line could be established. On the procedure:
as §1, §2

The target of test [3] is T1, human Raf (Homo sapiens, UniProt P04049).
T1 construct: expressed in transfected cells
Nature of the test: Yeast two-hybrid interaction test. Type of test: binding. Conditions: yeast two-hybrid system. The text has this:
(§3) To define the way that kd312 exerts its function we have tested its interaction with human Raf, H-Ras, and bcl-2 using a yeast two-hybrid system. […] Work is in progress to search for kd312 interacting proteins using the same yeast system.

The target of test [4] is T2, H-Ras (Homo sapiens, UniProt P01112).
T2 construct: expressed in transfected cells
The experiment in a line: Yeast two-hybrid interaction test. To be noted: yeast two-hybrid system. Type of test: binding.
Source text: as §3

Test [5] has as its target T3, bcl-2 (Homo sapiens, UniProt P10415).
T3 construct: expressed in transfected cells
The experiment in a line: Yeast two-hybrid interaction test. Type of test: binding. Conditions: yeast two-hybrid system.
Source text: as §3

T3 sequence (P10415 whole entry): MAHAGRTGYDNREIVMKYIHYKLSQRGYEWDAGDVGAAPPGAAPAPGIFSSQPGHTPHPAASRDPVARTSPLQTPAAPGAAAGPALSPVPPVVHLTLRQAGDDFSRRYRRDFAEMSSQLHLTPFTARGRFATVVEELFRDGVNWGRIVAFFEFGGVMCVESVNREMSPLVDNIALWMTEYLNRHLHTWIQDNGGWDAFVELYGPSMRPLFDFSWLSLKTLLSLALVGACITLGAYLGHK

On to “bcl-2: bcl-2 gene product, a potent apoptosis inhibitor, expressed from pCEP4 in 293 cells [reference compound]”, for which the “effect on geranylgeraniol-induced apoptosis (proportion of cells with hypo-diploid DNA content)” value (shortened to “effect”) in test [1] is listed as “protected 293 cells from geranylgeraniol-induced apoptosis”. As to “bax: murine bax gene product; expression in 293 cells led to cell death”, in test [2], the “outcome of gene expression in 293 cells” value is reported as “invariably led to cell death”.

B1: kd312: human kd312 protein (281 amino acids), blood loss-induced, distantly related to the Ras family, expressed from cDNA (protein)
chain: MKLAAMIKKMCPSDSELSIPAKNCYRMVILGSSKVGKTAIVSRFLTGRFEDAYTPTIEDFHRKFYSIRGEVYQLDILDTSGNHPFPAMRRLSILTGDVFILVFSLDNRDSFEEVQRLRQQILDTKSCLKNKTKENVDVPLVICGNKGDRDFYREVDQREIEQLVGDDPQRCAYFEISAKKNSSLDQMFRALFAMAKLPSEMSPDLHRKVSVQYCDVLHKKALRNKKLLRAGSGGGGGDPGDAFGIVAPFARRPSVHSDLMYIREKASAGSQAKDKERCVIS
For the molecule B1, the “effect” value in test [1] is “protects the cells from apoptosis; also recorded: protected 293 cells from geranylgeraniol-induced apoptosis; also recorded: protects 293 cells from chemical-induced apoptosis”. Besides, the “interaction with human Raf” value in test [3] was “No interaction”. Besides, the “interaction with H-Ras” value in test [4] was “No interaction”. Moreover, the “interaction with bcl-2” value in test [5] is listed as “No interaction”.

B2: R-ras: human R-ras gene product of the Ras family, expressed from pCEP4 in 293 cells (protein, UniProt P10301 1-215, looked up)
Ras-related protein R-Ras: MSSGAASGTGRGRPRGGGPGPGDPPPSETHKLVVVGGGGVGKSALTIQFIQSYFVSDYDPTIEDSYTKICSVDGIPARLDILDTAGQEEFGAMREQYMRAGHGFLLVFAINDRQSFNEVGKLFTQILRVKDRDDFPVVLVGNKADLESQRQVPRSEASAFGASHHVAYFEASAKLRLNVDEAFEQLVRAVRKYQEQELPPSPPSAPRKKGGGCPC
Take B2: the “effect” value in test [1] is given as “inhibited apoptosis”.

The values above are taken from patent US6462177B1, “Mammalian blood loss-induced gene, kd312” (Amgen Inc., priority 1998, dated 2002).
